From PMC7334207, “Select amino acids in DGCR8 are essential for the UGU-pri-miRNA interaction and processing” (Communications Biology, 2020)

What was measured:
[1] = molecular target: the molecule itself; experiment: SEC-MALS; molecular mass of the purified protein estimated with a Multi-Angle Light Scattering detector (miniDAWN TREOS, Wyatt Technology Corporation); compared with the theoretical mass of a dimer
G478del WT = molecular target: T1, G478del WT (Homo sapiens, UniProt Q8WYQ5 285-478, del370-429); experiment: EMSA; 50 mM Tris-HCl pH 7.5, 250 mM NaCl, 10% glycerol, 0.2 mg/ml BSA, 1 mM DTT, 2 mM EDTA; 1 uM RNA in 10 uL; on ice 60 min; 4% native PAGE at 4 C, ethidium bromide; details: protein: recombinant; chain copies: 2; hairpin
T1 sequence: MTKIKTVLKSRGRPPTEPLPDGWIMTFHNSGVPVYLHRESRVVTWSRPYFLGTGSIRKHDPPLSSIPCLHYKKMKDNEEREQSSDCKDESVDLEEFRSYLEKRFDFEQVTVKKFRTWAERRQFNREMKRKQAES

G478del-mut1 = molecular target: T2, G478del-mut1 (Homo sapiens, UniProt Q8WYQ5 285-478, W461A;A462G;E463Q;del370-429); experiment: as above; details: protein: recombinant; tags: 10xHis; chain copies: 2; hairpin
T2 sequence: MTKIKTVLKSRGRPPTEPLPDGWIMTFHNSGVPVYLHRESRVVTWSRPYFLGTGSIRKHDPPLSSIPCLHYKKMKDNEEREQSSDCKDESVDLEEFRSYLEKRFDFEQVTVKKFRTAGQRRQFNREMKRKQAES

G478 (Rhed) = molecular target: T3, G478 (Rhed) (Homo sapiens, UniProt Q8WYQ5 285-478); experiment: as above; details: protein: recombinant; (purified as for G4; theoretical dimer 44 kDa implies no GFP); chain copies: 2; hairpin
T3 sequence: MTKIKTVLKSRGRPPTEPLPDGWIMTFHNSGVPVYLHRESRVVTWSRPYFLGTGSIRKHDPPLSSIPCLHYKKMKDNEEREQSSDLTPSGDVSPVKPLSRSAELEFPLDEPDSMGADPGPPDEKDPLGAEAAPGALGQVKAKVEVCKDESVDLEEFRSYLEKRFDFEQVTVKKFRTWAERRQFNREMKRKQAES

[2] = molecular target: T4, G478del WT-mut1 hybrid dimer (Homo sapiens, UniProt Q8WYQ5;Q8WYQ5 285-369+430-478;285-369+430-478, internal_change;W461A;A462G;E463Q;internal_change); experiment: as above; details: protein: recombinant; tags: 10xHis on mut1 subunit; protein G on WT subunit removed by HRV 3C; copies: 1;1; hairpin
T4 sequence 1: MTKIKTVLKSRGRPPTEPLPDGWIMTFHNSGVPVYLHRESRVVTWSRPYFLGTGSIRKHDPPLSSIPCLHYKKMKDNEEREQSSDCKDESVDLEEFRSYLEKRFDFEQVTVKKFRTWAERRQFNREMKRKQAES
T4 sequence 2: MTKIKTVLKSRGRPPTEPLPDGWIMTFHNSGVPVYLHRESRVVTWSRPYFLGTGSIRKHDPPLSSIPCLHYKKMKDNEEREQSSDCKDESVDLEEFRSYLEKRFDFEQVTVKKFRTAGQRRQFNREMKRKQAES

Row | Binder | stoichiometry N [1] | Kd (G478del WT) [µM] | Kd (G478del-mut1) [µM] | Kd (G478 (Rhed)) [µM] | Kd [2] [µM]
1 | G478, Rhed (RNA-binding heme domain) of DGCR8, amino acids 285–478 (domain or fragment, human, UniProt Q8WYQ5 285-478, looked up, Associated with hemin; also called Rhed dimer; G478 dimer; source: E. coli, purified (as described for the G4 fragments: Ni2+-agarose, SP-sepharose; then Superdex 200)) MTKIKTVLKSRGRPPTEPLPDGWIMTFHNSGVPVYLHRESRVVTWSRPYFLGTGSIRKHDPPLSSIPCLHYKKMKDNEEREQSSDLTPSGDVSPVKPLSRSAELEFPLDEPDSMGADPGPPDEKDPLGAEAAPGALGQVKAKVEVCKDESVDLEEFRSYLEKRFDFEQVTVKKFRTWAERRQFNREMKRKQAES | 2 | – | – | – | –
2 | G478del, G478 (DGCR8 amino acids 285–478) with the 370–429 region deleted (domain or fragment, human, UniProt Q8WYQ5 285-478, looked up, Associated with hemin; Theoretical dimer mass ~30 kDa as printed; also called G478del–WT; source: E. coli, purified (as described for G478)) MTKIKTVLKSRGRPPTEPLPDGWIMTFHNSGVPVYLHRESRVVTWSRPYFLGTGSIRKHDPPLSSIPCLHYKKMKDNEEREQSSDCKDESVDLEEFRSYLEKRFDFEQVTVKKFRTWAERRQFNREMKRKQAES | 2 | – | – | – | –
3 | G460del, G478del with the 461–478 region deleted (domain or fragment, human, UniProt Q8WYQ5 285-460, looked up, Lost its hemin-associating ability; source: E. coli, purified (as G478 and its variants)) MTKIKTVLKSRGRPPTEPLPDGWIMTFHNSGVPVYLHRESRVVTWSRPYFLGTGSIRKHDPPLSSIPCLHYKKMKDNEEREQSSDCKDESVDLEEFRSYLEKRFDFEQVTVKKFRT | 2 | – | – | – | –
4 | G478del-mut1, G478del with AGQ in the 461–463 region instead of WAE (domain or fragment, human, UniProt Q8WYQ5 285-478, looked up, Associated with hemin; source: E. coli, purified (as described for G478del)) MTKIKTVLKSRGRPPTEPLPDGWIMTFHNSGVPVYLHRESRVVTWSRPYFLGTGSIRKHDPPLSSIPCLHYKKMKDNEEREQSSDCKDESVDLEEFRSYLEKRFDFEQVTVKKFRTAGQRRQFNREMKRKQAES | 2 | – | – | – | –
5 | ACUGGAAGCUGUGAAAGAUGGGCUUUCAGU (structured_RNA) [10L10_UGU] | – | 5.73 ± 0.39 | 9.03 ± 0.61 | 3.43 ± 0.29 | 5.43 ± 0.46
6 | ACUGGAAGCCAAGAAAGAUGGGCUUUCAGU (structured_RNA) [10L10_noUGU] | – | 16.8 ± 1.48 | 13.8 ± 0.39 | 8.57 ± 0.96 | 11.5 ± 0.77
